B1: GpH7-A5/GpH7-B3 variant N325_13S/GpL16-k0 (antibody, human IgG1, kappa)
heavy 1: not shown
heavy 2: not shown
light: DIVMTQSPLSLPVTPGEPASISCQASESLVHSNRNTYLHWYLQKPGQSPQLLIYKVSNRFSGVPDRFSGSGSGTDFTLKISRVEAEDVGVYYCSQNTHVPPTFGQGTKVEIERTVAAPSVFIFPPSDEQLKSGTASVVCLLNNFYPREAKVQWKVDNALQSGNSQESVTEQDSKDSTYSLSSTLTLSKADYEKHKVYACEVTHQGLSSPVTKSFNRGEC
notes: Heterodimerized IgG1; alteration in one H chain only; also called He Ab
B2: GpH7-B3 variant K334_01G/GpL16-k0 (antibody, human IgG1, kappa)
heavy: not shown
light: B1 light
notes: homodimerized antibody, mutation in both H chains; also called K334_01G Ho Ab
B3: GpH7-A5/GpH7-B3 variant Y296_11K/GpL16-k0 (antibody, human IgG1, kappa)
heavy 1: not shown
heavy 2: not shown
light: B1 light
notes: as for B1
B4: GpH7-A5/GpH7-B3 variant Y296_16H/GpL16-k0 (antibody, human IgG1, kappa)
heavy 1: not shown
heavy 2: not shown
light: B1 light
notes: as for B1
B5: GpH7-B3 variant K326_03V/GpL16-k0 (antibody, human IgG1, kappa)
heavy: not shown
light: B1 light
notes: homodimerized antibody, mutation in both H chains; also called K326_03V Ho Ab
B6: GpH7-B3 variant K326_06M/GpL16-k0 (antibody, human IgG1, kappa)
heavy: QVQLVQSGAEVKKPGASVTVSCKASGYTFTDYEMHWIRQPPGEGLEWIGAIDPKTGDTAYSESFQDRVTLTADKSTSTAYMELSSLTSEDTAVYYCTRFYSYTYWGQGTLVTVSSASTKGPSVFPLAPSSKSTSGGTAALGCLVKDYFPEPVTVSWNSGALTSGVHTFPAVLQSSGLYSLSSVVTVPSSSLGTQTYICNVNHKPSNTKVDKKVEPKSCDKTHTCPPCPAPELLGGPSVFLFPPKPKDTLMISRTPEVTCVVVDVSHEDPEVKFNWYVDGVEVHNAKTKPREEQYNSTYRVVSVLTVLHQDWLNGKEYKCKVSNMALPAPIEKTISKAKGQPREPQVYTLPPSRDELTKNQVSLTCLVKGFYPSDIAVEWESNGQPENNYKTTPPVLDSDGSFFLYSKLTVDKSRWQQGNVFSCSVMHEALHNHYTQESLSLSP
light: B1 light
notes: homodimerized antibody, mutation in both H chains; also called K326_06M Ho Ab
B7: GpH7-B3 variant I336_15Y/GpL16-k0 (antibody, human IgG1, kappa)
heavy: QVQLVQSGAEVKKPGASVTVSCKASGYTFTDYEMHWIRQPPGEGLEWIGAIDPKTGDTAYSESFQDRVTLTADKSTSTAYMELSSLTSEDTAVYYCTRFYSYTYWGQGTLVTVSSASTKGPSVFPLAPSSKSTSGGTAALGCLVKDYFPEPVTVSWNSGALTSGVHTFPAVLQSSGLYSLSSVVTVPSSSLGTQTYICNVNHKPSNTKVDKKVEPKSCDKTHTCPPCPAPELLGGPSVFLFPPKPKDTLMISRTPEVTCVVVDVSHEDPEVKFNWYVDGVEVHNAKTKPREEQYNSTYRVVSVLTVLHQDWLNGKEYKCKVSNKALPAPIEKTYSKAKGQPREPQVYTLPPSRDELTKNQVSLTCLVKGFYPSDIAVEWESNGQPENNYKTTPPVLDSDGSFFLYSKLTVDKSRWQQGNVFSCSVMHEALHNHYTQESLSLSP
light: B1 light
notes: homodimerized antibody, mutation in both H chains; also called I336_15Y Ho Ab
B8: GpH7-B3 variant K334_14T/GpL16-k0 (antibody, human IgG1, kappa)
heavy: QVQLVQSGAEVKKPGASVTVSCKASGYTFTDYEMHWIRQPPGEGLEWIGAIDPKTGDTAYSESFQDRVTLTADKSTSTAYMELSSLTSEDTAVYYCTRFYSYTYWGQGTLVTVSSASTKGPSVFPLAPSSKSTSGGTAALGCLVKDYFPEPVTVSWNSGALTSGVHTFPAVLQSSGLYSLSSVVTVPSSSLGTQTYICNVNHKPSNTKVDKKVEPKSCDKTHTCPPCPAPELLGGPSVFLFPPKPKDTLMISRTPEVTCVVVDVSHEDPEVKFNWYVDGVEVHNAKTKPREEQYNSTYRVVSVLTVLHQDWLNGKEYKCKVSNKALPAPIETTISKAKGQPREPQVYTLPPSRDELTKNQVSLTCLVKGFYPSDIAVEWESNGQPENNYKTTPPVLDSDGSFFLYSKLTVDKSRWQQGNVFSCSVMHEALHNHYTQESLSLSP
light: B1 light
notes: homodimerized antibody, mutation in both H chains; also called K334_14T Ho Ab
B9: GpH7-B3 variant K334_08L/GpL16-k0 (antibody, human IgG1, kappa)
heavy: not shown
light: B1 light
notes: homodimerized antibody, mutation in both H chains; also called K334_08L Ho Ab
B10: GpH7-A5/GpH7-B3 variant S324_05P/GpL16-k0 (antibody, human IgG1, kappa)
heavy 1: not shown
heavy 2: not shown
light: B1 light
notes: as for B1
B11: GpH7-A5/GpH7-B3 variant P271_09D/GpL16-k0 (antibody, human IgG1, kappa)
heavy 1: not shown
heavy 2: not shown
light: B1 light
notes: as for B1
B12: GpH7-B3 variant K334_13S/GpL16-k0 (antibody, human IgG1, kappa)
heavy: not shown
light: B1 light
notes: homodimerized antibody, mutation in both H chains; also called K334_13S Ho Ab
B13: GpH7-A5/GpH7-B3 variant Y296_18N/GpL16-k0 (antibody, human IgG1, kappa)
heavy 1: not shown
heavy 2: not shown
light: B1 light
notes: as for B1
B14: GpH7-B3 variant K326_08L/GpL16-k0 (antibody, human IgG1, kappa)
heavy: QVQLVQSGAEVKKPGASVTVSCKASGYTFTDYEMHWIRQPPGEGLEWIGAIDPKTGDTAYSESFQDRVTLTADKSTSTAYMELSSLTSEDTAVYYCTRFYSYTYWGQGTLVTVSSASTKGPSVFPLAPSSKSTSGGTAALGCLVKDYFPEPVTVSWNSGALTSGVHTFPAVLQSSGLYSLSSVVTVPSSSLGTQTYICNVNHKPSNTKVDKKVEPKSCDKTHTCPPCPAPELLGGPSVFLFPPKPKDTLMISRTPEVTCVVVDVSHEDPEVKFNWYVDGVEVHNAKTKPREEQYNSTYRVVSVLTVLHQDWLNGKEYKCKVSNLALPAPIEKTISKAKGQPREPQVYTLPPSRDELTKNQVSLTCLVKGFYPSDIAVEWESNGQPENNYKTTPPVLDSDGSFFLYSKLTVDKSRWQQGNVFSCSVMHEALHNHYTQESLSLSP
light: B1 light
notes: homodimerized antibody, mutation in both H chains; also called K326_08L Ho Ab
B15: GpH7-B3 variant K334_04F/GpL16-k0 (antibody, human IgG1, kappa)
heavy: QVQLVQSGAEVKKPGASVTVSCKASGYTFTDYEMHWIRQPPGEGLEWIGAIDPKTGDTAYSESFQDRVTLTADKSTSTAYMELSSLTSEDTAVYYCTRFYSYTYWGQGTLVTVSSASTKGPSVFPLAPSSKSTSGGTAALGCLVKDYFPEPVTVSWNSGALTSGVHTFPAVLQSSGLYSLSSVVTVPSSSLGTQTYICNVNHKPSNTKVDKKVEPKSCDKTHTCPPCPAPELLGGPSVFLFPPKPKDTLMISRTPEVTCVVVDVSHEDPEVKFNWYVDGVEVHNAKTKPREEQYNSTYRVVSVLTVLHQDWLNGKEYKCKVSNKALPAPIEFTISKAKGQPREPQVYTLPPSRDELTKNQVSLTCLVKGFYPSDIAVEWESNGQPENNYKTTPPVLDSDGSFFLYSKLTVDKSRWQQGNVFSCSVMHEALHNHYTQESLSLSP
light: B1 light
notes: homodimerized antibody, mutation in both H chains; also called K334_04F Ho Ab
B16: GpH7-B3 variant K334_03V/GpL16-k0 (antibody, human IgG1, kappa)
heavy: not shown
light: B1 light
notes: homodimerized antibody, mutation in both H chains; also called K334_03V Ho Ab
B17: GpH7-B3 variant K334_07I/GpL16-k0 (antibody, human IgG1, kappa)
heavy: not shown
light: B1 light
notes: homodimerized antibody, mutation in both H chains; also called K334_07I Ho Ab
B18: GpH7-A5/GpH7-B3 variant N325_15Y/GpL16-k0 (antibody, human IgG1, kappa)
heavy 1: not shown
heavy 2: not shown
light: B1 light
notes: as for B1
B19: GpH7-A5/GpH7-B3 variant N325_14T/GpL16-k0 (antibody, human IgG1, kappa)
heavy 1: not shown
heavy 2: not shown
light: B1 light
notes: as for B1
B20: GpH7-B3 variant K334_02A/GpL16-k0 (antibody, human IgG1, kappa)
heavy: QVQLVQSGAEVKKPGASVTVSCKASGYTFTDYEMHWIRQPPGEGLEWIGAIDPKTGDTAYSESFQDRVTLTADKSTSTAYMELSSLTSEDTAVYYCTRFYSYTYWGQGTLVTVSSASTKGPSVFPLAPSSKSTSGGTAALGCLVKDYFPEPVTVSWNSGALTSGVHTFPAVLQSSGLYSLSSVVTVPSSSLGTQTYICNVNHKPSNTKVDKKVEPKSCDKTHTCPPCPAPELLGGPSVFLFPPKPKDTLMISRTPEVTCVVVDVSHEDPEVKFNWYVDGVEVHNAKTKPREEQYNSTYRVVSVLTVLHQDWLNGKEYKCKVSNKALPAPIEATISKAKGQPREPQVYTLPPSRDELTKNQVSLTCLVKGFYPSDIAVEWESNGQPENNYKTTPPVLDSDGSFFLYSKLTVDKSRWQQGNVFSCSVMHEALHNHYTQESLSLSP
light: B1 light
notes: homodimerized antibody, mutation in both H chains; also called K334_02A Ho Ab
B21: GpH7-B3 variant K334_09D/GpL16-k0 (antibody, human IgG1, kappa)
heavy: not shown
light: B1 light
notes: homodimerized antibody, mutation in both H chains; also called K334_09D Ho Ab
B22: GpH7-A5/GpH7-B3 variant Y300_10E/GpL16-k0 (antibody, human IgG1, kappa)
heavy 1: not shown
heavy 2: not shown
light: B1 light
notes: as for B1
B23: GpH7-B3 variant K326_19Q/GpL16-k0 (antibody, human IgG1, kappa)
heavy: not shown
light: B1 light
notes: homodimerized antibody, mutation in both H chains; also called K326_19Q Ho Ab
B24: GpH7-B3 variant K326_09D/GpL16-k0 (antibody, human IgG1, kappa)
heavy: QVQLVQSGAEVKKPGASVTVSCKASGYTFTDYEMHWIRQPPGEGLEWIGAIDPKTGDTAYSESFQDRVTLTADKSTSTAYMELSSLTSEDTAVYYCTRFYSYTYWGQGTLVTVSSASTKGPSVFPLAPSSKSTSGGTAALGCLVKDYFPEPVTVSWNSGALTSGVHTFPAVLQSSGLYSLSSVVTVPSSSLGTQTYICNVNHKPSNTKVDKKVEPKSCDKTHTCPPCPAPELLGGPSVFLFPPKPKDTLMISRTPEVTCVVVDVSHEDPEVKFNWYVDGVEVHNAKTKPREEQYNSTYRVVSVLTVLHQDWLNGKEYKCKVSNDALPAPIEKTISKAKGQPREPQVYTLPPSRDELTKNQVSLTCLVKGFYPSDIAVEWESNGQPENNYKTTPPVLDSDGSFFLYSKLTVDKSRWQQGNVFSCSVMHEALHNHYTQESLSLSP
light: B1 light
notes: homodimerized antibody, mutation in both H chains; also called K326_09D Ho Ab
B25: GpH7-B3 variant K326_07I/GpL16-k0 (antibody, human IgG1, kappa)
heavy: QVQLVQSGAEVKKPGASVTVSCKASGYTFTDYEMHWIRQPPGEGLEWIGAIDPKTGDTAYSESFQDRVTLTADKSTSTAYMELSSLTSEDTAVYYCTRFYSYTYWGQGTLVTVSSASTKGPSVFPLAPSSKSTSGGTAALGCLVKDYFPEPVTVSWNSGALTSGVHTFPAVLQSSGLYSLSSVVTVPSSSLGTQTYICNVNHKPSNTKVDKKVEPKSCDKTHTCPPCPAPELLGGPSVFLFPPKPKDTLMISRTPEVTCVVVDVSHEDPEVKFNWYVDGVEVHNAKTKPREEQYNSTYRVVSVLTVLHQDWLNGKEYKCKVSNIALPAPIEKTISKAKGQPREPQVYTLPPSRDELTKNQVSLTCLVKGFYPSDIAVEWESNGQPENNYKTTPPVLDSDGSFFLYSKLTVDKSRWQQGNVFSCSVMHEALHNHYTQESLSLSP
light: B1 light
notes: homodimerized antibody, mutation in both H chains; also called K326_07I Ho Ab
B26: GpH7-A5/GpH7-B3 variant N325_19Q/GpL16-k0 (antibody, human IgG1, kappa)
heavy 1: not shown
heavy 2: not shown
light: B1 light
notes: as for B1
B27: GpH7-B3 variant K326_04F/GpL16-k0 (antibody, human IgG1, kappa)
heavy: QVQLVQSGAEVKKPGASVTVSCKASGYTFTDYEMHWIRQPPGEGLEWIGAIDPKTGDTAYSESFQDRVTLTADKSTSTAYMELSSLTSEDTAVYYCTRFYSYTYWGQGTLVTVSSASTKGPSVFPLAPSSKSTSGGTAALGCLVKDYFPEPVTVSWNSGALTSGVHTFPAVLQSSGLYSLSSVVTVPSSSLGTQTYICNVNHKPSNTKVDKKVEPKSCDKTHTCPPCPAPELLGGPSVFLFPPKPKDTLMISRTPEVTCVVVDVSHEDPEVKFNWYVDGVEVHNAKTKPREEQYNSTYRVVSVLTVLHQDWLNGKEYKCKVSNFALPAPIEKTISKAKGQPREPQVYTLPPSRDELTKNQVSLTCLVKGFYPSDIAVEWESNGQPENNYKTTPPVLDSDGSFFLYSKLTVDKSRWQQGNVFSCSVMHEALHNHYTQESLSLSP
light: B1 light
notes: homodimerized antibody, mutation in both H chains; also called K326_04F Ho Ab
B28: GpH7-A5/GpH7-B3 variant Y296_14T/GpL16-k0 (antibody, human IgG1, kappa)
heavy 1: not shown
heavy 2: not shown
light: B1 light
notes: as for B1
B29: GpH7-B3 variant K326_20W/GpL16-k0 (antibody, human IgG1, kappa)
heavy: not shown
light: B1 light
notes: homodimerized antibody, mutation in both H chains; also called K326_20W Ho Ab
B30: GpH7-A5/GpH7-B3 variant P271_14T/GpL16-k0 (antibody, human IgG1, kappa)
heavy 1: not shown
heavy 2: not shown
light: B1 light
notes: as for B1
B31: GpH7-A5/GpH7-B3 variant N325_20W/GpL16-k0 (antibody, human IgG1, kappa)
heavy 1: not shown
heavy 2: not shown
light: B1 light
notes: as for B1
B32: GpH7-A5/GpH7-B3 variant S298_08L/GpL16-k0 (antibody, human IgG1, kappa)
heavy 1: not shown
heavy 2: not shown
light: B1 light
notes: as for B1
B33: GpH7-A5/GpH7-B3 variant Y296_13S/GpL16-k0 (antibody, human IgG1, kappa)
heavy 1: not shown
heavy 2: not shown
light: B1 light
notes: as for B1
B34: GpH7-B3 variant I336_16H/GpL16-k0 (antibody, human IgG1, kappa)
heavy: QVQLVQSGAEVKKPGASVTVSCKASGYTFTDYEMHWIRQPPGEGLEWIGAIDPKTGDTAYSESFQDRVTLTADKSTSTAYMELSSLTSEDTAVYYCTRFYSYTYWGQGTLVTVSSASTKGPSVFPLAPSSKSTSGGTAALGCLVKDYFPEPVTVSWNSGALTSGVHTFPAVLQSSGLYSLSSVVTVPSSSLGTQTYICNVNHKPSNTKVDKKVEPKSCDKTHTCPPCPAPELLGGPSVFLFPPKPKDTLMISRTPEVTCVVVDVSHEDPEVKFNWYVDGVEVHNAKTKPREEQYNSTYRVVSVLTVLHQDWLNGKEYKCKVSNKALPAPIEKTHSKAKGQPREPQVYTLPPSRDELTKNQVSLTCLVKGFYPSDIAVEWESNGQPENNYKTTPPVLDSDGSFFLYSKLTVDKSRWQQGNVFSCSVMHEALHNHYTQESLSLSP
light: B1 light
notes: homodimerized antibody, mutation in both H chains; also called I336_16H Ho Ab
B35: GpH7-B3 variant K326_10E/GpL16-k0 (antibody, human IgG1, kappa)
heavy: not shown
light: B1 light
notes: homodimerized antibody, mutation in both H chains; also called K326_10E Ho Ab
B36: GpH7-B3 variant K334_05P/GpL16-k0 (antibody, human IgG1, kappa)
heavy: not shown
light: B1 light
notes: homodimerized antibody, mutation in both H chains; also called K334_05P Ho Ab
B37: GpH7-A5/GpH7-B3 variant Y296_01G/GpL16-k0 (antibody, human IgG1, kappa)
heavy 1: not shown
heavy 2: not shown
light: B1 light
notes: as for B1

Columns and labels:
[1] = molecular target: T1, FcγRIIb extracellular domain with C-terminal His tag (human, UniProt P31994 43-217); experiment: SPR (Biacore), relative binding
T1 construct: extracellular domain; also called FcgRIIb; 2b; not shown: His tag attached to the C terminus
T1 sequence (looked up): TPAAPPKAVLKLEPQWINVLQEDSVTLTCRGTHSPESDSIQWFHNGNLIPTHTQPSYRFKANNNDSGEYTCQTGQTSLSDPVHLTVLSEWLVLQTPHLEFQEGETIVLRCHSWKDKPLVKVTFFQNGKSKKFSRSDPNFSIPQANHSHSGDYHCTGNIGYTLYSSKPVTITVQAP

[2] = molecular target: T2, FcγRIIIa extracellular domain with C-terminal His tag (human, UniProt P08637 17-208); experiment: SPR (Biacore), relative binding
T2 construct: extracellular domain; also called FcgRIIIa; 3a; not shown: His tag attached to the C terminus
T2 sequence (P08637 17-208): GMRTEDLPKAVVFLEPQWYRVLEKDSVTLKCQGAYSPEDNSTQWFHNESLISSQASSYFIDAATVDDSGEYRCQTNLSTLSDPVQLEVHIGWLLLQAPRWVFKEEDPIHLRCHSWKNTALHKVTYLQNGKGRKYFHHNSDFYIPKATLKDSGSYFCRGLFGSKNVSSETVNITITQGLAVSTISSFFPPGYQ

[3] = molecular target: T2, FcγRIIIa extracellular domain with …; experiment: SPR (Biacore); He/Con_3a divided by He/Con_2b (reference: binding to FcγRIIb)
Summary of the method: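 First, antigen peptide is immobilized on a CM5 chip by amine coupling or, biotinylated, on an SA chip. Next, the antibody is captured and FcγR diluted in running buffer HBS-EP+ is passed over at 25° C. Finally, 10 mM glycine-HCl, pH 1.5 strips the antibody.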

[4] = molecular target: T3, FcγRIa extracellular domain with C-terminal His tag (human, UniProt P12314 16-292); experiment: SPR (Biacore), relative FcγRIa binding, GpH7-B3/GpL16-k0 (HoCon Ab) = 100
T3 construct: extracellular domain; soluble analyte in Biacore; also called FcgRI; CD64
T3 sequence (P12314 16-292): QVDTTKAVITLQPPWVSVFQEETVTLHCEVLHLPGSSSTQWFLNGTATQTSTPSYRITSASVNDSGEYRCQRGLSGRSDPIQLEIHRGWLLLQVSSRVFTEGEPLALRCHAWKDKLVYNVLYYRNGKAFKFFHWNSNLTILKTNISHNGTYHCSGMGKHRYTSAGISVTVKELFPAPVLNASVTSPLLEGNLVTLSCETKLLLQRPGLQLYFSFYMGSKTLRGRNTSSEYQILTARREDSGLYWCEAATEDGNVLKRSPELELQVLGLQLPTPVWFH

Row | Binder | He/Con_2b (IIb binding) [1] | He/Con_3a (IIIa binding) [2] | He_3a/2b (IIIa/IIb) [3] [ratio] | Ho/Con_1a [4]
1 | B1 | 177 % of GpH7-A5/GpH7-B3/GpL16-k0 (=100) | 65.1 % of GpH7-A5/GpH7-B3/GpL16-k0 (=100) | 0.37 | 
2 | B2 |  |  |  | 106 % of control
3 | B3 | 72.8 % of GpH7-A5/GpH7-B3/GpL16-k0 (=100) | 56.7 % of GpH7-A5/GpH7-B3/GpL16-k0 (=100) | 0.78 | 
4 | B4 | 92.2 % of GpH7-A5/GpH7-B3/GpL16-k0 (=100) | 73.4 % of GpH7-A5/GpH7-B3/GpL16-k0 (=100) | 0.8 | 
5 | B5 |  |  |  | 103 % of control
6 | B6 |  |  |  | 104 % of control
7 | B7 |  |  |  | 110 % of control
8 | B8 |  |  |  | 106 % of control
9 | B9 |  |  |  | 108 % of control
10 | B10 | 94.7 % of GpH7-A5/GpH7-B3/GpL16-k0 (=100) | 65.5 % of GpH7-A5/GpH7-B3/GpL16-k0 (=100) | 0.69 | 
11 | B11 | 120 % of GpH7-A5/GpH7-B3/GpL16-k0 (=100) | 93.1 % of GpH7-A5/GpH7-B3/GpL16-k0 (=100) | 0.77 | 
12 | B12 |  |  |  | 106 % of control
13 | B13 | 91.5 % of GpH7-A5/GpH7-B3/GpL16-k0 (=100) | 72.1 % of GpH7-A5/GpH7-B3/GpL16-k0 (=100) | 0.79 | 
14 | B14 |  |  |  | 101 % of control
15 | B15 |  |  |  | 106 % of control
16 | B16 |  |  |  | 105 % of control
17 | B17 |  |  |  | 107 % of control
18 | B18 | 99.5 % of GpH7-A5/GpH7-B3/GpL16-k0 (=100) | 29.5 % of GpH7-A5/GpH7-B3/GpL16-k0 (=100) | 0.3 | 
19 | B19 | 91.6 % of GpH7-A5/GpH7-B3/GpL16-k0 (=100) | 39.4 % of GpH7-A5/GpH7-B3/GpL16-k0 (=100) | 0.43 | 

Row | Binder | He/Con_2b (IIb binding) [1] | He/Con_3a (IIIa binding) [2] | He_3a/2b (IIIa/IIb) [3] [ratio] | Ho/Con_1a [4]
20 | B20 |  |  |  | 106 % of control
21 | B21 |  |  |  | 108 % of control
22 | B22 | 134 % of GpH7-A5/GpH7-B3/GpL16-k0 (=100) | 104 % of GpH7-A5/GpH7-B3/GpL16-k0 (=100) | 0.78 | 
23 | B23 |  |  |  | 105 % of control
24 | B24 |  |  |  | 106 % of control
25 | B25 |  |  |  | 102 % of control
26 | B26 | 69.1 % of GpH7-A5/GpH7-B3/GpL16-k0 (=100) | 31.6 % of GpH7-A5/GpH7-B3/GpL16-k0 (=100) | 0.46 | 
27 | B27 |  |  |  | 102 % of control
28 | B28 | 88.2 % of GpH7-A5/GpH7-B3/GpL16-k0 (=100) | 64.5 % of GpH7-A5/GpH7-B3/GpL16-k0 (=100) | 0.73 | 
29 | B29 |  |  |  | 104 % of control
30 | B30 | 95.4 % of GpH7-A5/GpH7-B3/GpL16-k0 (=100) | 56.4 % of GpH7-A5/GpH7-B3/GpL16-k0 (=100) | 0.59 | 
31 | B31 | 169 % of GpH7-A5/GpH7-B3/GpL16-k0 (=100) | 32.8 % of GpH7-A5/GpH7-B3/GpL16-k0 (=100) | 0.19 | 
32 | B32 | 108 % of GpH7-A5/GpH7-B3/GpL16-k0 (=100) | 73.5 % of GpH7-A5/GpH7-B3/GpL16-k0 (=100) | 0.68 | 
33 | B33 | 86.3 % of GpH7-A5/GpH7-B3/GpL16-k0 (=100) | 61.8 % of GpH7-A5/GpH7-B3/GpL16-k0 (=100) | 0.72 | 
34 | B34 |  |  |  | 114 % of control
35 | B35 |  |  |  | 105 % of control
36 | B36 |  |  |  | 106 % of control
37 | B37 | 79.3 % of GpH7-A5/GpH7-B3/GpL16-k0 (=100) | 54.5 % of GpH7-A5/GpH7-B3/GpL16-k0 (=100) | 0.69 | 

— patent US20180155451A1 (published 2018)
